Results on four molecules are retold here after patent US12679878B2, “CRF2 receptor agonists and their use in therapy” (SANOFI, priority 2020, dated 2026).

Starred links: 1 amine or outer side, 2 acyl side, 3 side chain; linkers in the order of their positions; H or OH if unused. Non-standard residues stand in square brackets, D forms with d. Residues, ends and D or L forms follow the SMILES beside them. Groups on a side chain read outwards from the residue. No end group written: not given here. *: point of attachment. C18 diacid = O=C(O)CCCCCCCCCCCCCCCCC(=O)*; C16 diacid = O=C(O)CCCCCCCCCCCCCCC(=O)*; γGlu = O=C(O)[C@H](CCC(=O)[*:2])N[*:1]; AEEA = NCCOCCOCC(=O)O; Aib = CC(C)(N)C(=O)O

A short description of experiment [1]: Effect on blood pressure, telemetry (Example 17). Type of experiment: in vivo. The settings on record: Sprague Dawley rats, 0.1 mg/kg SC. The protocol: The effect of the compounds on blood pressure was determined in telemetry studies in Sprague Dawley rats at a dosage of 0.1 mg/kg SC.
The rats were previously implanted with a telemetry device (DSI, Saint-Paul, USA, HD-S10, HD-S11 or HD S21) and allowed to recover for a minimum period of 2 weeks before treatment with vehicle or the different peptides. Blood pressure (BP) was recorded through a catheter inserted into the abdominal aorta. The device body was placed in the abdomen. At the end of surgery, animals were placed in individual cages until the end of the study.
Pressure signals were recorded for one hour before the treatment (basal period). Thereafter, the subcutaneous administration of the test compound or its vehicle was performed, under continuous recording of the signal over a 48-hour period. Data acquisition was performed using Hem 4.3 acquisition software (Notocord®, Le Pecq, France) connected to the telemetry device. Hemodynamic parameters were recorded during a […] before treatment and every 4-hour period following subcutaneous administration over 48 hours.
Investigated parameters (calculated from BP signal) were Heart Rate (HR) in beats per minute (bpm), Diastolic and Systolic Blood Pressure (DBP) in mmHg, and Mean Blood Pressure (MBP) in mmHg.
Data from Hem were manipulated using Microsoft Excel®. For each parameter, a basal value was determined as the average calculated over a 1-hour period during the pre-treatment sequence, and the values post treatment were calculated over 4-hour periods ([0-4], [4-8], [8-12], [12-16], [16-20], [20-24], [24-28], [32-36], [36-40], [40-44] and [44-48] hours) covering the 48-hour period following administration.
Representative data are presented in Table 15 below, in which “n” represents the number of animals for which individual values were obtained and “Duration” indicates the last time point for which a significant effect on BP was still seen: Table 15

Experiment [2] deals with human corticotropin-releasing factor 2α (CRF2α receptor) (human), Q13324. Nature of the experiment: cell-based or functional assay.
Sequence of human corticotropin-releasing factor 2α (CRF2α receptor) (human), Q13324 (Q13324 20-411): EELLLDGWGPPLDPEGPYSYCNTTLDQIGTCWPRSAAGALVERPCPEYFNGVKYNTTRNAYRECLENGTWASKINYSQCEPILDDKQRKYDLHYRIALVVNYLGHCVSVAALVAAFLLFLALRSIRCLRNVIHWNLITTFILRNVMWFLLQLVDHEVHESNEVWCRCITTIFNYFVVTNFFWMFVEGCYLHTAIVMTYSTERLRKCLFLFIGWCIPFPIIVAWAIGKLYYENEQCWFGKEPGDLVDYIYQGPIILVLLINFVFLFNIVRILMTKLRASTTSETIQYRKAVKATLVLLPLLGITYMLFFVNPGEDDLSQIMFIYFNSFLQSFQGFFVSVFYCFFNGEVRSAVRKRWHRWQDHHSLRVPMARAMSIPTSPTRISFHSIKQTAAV
Experiment [3] concerns the target human corticotropin-releasing factor 2α receptor (CRF2α receptor) (human), Q13324. Nature of the experiment: cell-based or functional assay.

Sequence of human corticotropin-releasing factor 2α receptor (CRF2α receptor) (human), Q13324 (Q13324 20-411): as above

As to `CC[C@H](C)[C@H](N)C(=O)N[C@H](C(=O)N[C@@H](CC(C)C)C(=O)N[C@@H](CO)C(=O)N[C@@H](CC(C)C)C(=O)N[C@@H](CC(=O)O)C(=O)N[C@H](C(=O)N1CCC[C@H]1C(=O)N[C@H](C(=O)N[C@@H](CCCCN)C(=O)N[C@@H](CC(C)C)C(=O)N[C@@H](CCCCNC(=O)COCCOCCNC(=O)COCCOCCNC(=O)CC[C@H](NC(=O)CCCCCCCCCCCCCCCCC(=O)O)C(=O)O)C(=O)N[C@@H](CCC(N)=O)C(=O)N[C@H](C(=O)N[C@@H](CC(C)C)C(=O)N[C@@H](CC(C)C)C(=O)N[C@@H](CCCCN)C(=O)N[C@@H](CCC(N)=O)C(=O)N[C@@H](CCC(=O)O)C(=O)N[C@@H](CCCNC(=N)N)C(=O)N[C@@H](CCC(N)=O)C(=O)N[C@@H](CCCCN)C(=O)N[C@@H](CCCCN)C(=O)NC(C)(C)C(=O)N[C@@H](CCCNC(=N)N)C(=O)N[C@@H](CCC(=O)O)C(=O)N[C@@H](CCC(N)=O)C(=O)N[C@@H](C)C(=O)N[C@@H](CCC(=O)O)C(=O)N[C@H](C(=O)N[C@@H](CC(N)=O)C(=O)N[C@@H](CCCCN)C(=O)N[C@@H](CCCNC(=N)N)C(=O)N[C@H](C(=O)N[C@@H](CC(C)C)C(=O)N[C@@H](CCC(=O)O)C(=O)N[C@@H](CCCNC(=N)N)C(=O)N[C@H](C(N)=O)C(C)C)[C@@H](C)CC)[C@@H](C)O)[C@@H](C)CC)[C@@H](C)CC)C(C)C)C(C)C` [SEQ ID NO: 152, IVLSLDVPIKLK*QILLKQERQKKAibREQAETNKRILERV-NH2] (H-IVLSLDVPIKLK([AEEA-AEEA-γGlu-C18 diacid])QILLKQERQKK[Aib]REQAETNKRILERV-NH2), the “Duration (h): last time point for which a significant effect on BP was still seen” value in experiment [1] came to 20 h. Also, the “Effect on Systolic Pressure % change from baseline 8 h” value in experiment [1] (8 h) is −8.6%. The “Effect on Systolic Pressure % change from baseline 24 h” value in experiment [1] (24 h) was −6.0%.

B1: peptide of SEQ ID NO: 187 (peptide)
peptide: IVLSLD[dV]PIKLK([γGlu-C16 diacid])QILLKQERQK[Aib]QREQAEKNKQILAQV-NH2
modifications: N-terminus assumed
SMILES: CC[C@H](C)[C@H](N)C(=O)N[C@H](C(=O)N[C@@H](CC(C)C)C(=O)N[C@@H](CO)C(=O)N[C@@H](CC(C)C)C(=O)N[C@@H](CC(=O)O)C(=O)N[C@@H](C(=O)N1CCC[C@H]1C(=O)N[C@H](C(=O)N[C@@H](CCCCN)C(=O)N[C@@H](CC(C)C)C(=O)N[C@@H](CCCCNC(=O)CC[C@H](NC(=O)CCCCCCCCCCCCCCC(=O)O)C(=O)O)C(=O)N[C@@H](CCC(N)=O)C(=O)N[C@H](C(=O)N[C@@H](CC(C)C)C(=O)N[C@@H](CC(C)C)C(=O)N[C@@H](CCCCN)C(=O)N[C@@H](CCC(N)=O)C(=O)N[C@@H](CCC(=O)O)C(=O)N[C@@H](CCCNC(=N)N)C(=O)N[C@@H](CCC(N)=O)C(=O)N[C@@H](CCCCN)C(=O)NC(C)(C)C(=O)N[C@@H](CCC(N)=O)C(=O)N[C@@H](CCCNC(=N)N)C(=O)N[C@@H](CCC(=O)O)C(=O)N[C@@H](CCC(N)=O)C(=O)N[C@@H](C)C(=O)N[C@@H](CCC(=O)O)C(=O)N[C@@H](CCCCN)C(=O)N[C@@H](CC(N)=O)C(=O)N[C@@H](CCCCN)C(=O)N[C@@H](CCC(N)=O)C(=O)N[C@H](C(=O)N[C@@H](CC(C)C)C(=O)N[C@@H](C)C(=O)N[C@@H](CCC(N)=O)C(=O)N[C@H](C(N)=O)C(C)C)[C@@H](C)CC)[C@@H](C)CC)[C@@H](C)CC)C(C)C)C(C)C
Regarding B1, in experiment [2], the EC50 [nM], 0% HSA (cAMP, HTRF) was determined as 0.44 nM. Also, the CRF2 EC50 (cAMP, HTRF) in experiment [3] is 0.44 nM.

B2: peptide of SEQ ID NO: 189 (peptide)
peptide: IVLSLD[dV]PIKLK([γGlu-C16 diacid])QILLKQERQKK[Aib]RQKAEKNKQILAQV-NH2
modifications: N-terminus assumed
SMILES: CC[C@H](C)[C@H](N)C(=O)N[C@H](C(=O)N[C@@H](CC(C)C)C(=O)N[C@@H](CO)C(=O)N[C@@H](CC(C)C)C(=O)N[C@@H](CC(=O)O)C(=O)N[C@@H](C(=O)N1CCC[C@H]1C(=O)N[C@H](C(=O)N[C@@H](CCCCN)C(=O)N[C@@H](CC(C)C)C(=O)N[C@@H](CCCCNC(=O)CC[C@H](NC(=O)CCCCCCCCCCCCCCC(=O)O)C(=O)O)C(=O)N[C@@H](CCC(N)=O)C(=O)N[C@H](C(=O)N[C@@H](CC(C)C)C(=O)N[C@@H](CC(C)C)C(=O)N[C@@H](CCCCN)C(=O)N[C@@H](CCC(N)=O)C(=O)N[C@@H](CCC(=O)O)C(=O)N[C@@H](CCCNC(=N)N)C(=O)N[C@@H](CCC(N)=O)C(=O)N[C@@H](CCCCN)C(=O)N[C@@H](CCCCN)C(=O)NC(C)(C)C(=O)N[C@@H](CCCNC(=N)N)C(=O)N[C@@H](CCC(N)=O)C(=O)N[C@@H](CCCCN)C(=O)N[C@@H](C)C(=O)N[C@@H](CCC(=O)O)C(=O)N[C@@H](CCCCN)C(=O)N[C@@H](CC(N)=O)C(=O)N[C@@H](CCCCN)C(=O)N[C@@H](CCC(N)=O)C(=O)N[C@H](C(=O)N[C@@H](CC(C)C)C(=O)N[C@@H](C)C(=O)N[C@@H](CCC(N)=O)C(=O)N[C@H](C(N)=O)C(C)C)[C@@H](C)CC)[C@@H](C)CC)[C@@H](C)CC)C(C)C)C(C)C
Take B2: the EC50 [nM], 0% HSA (cAMP, HTRF) in experiment [2] came to 3.49 nM. Further, in experiment [3], the CRF2 EC50 (cAMP, HTRF) was determined as 3.49 nM.

B3: peptide of SEQ ID NO: 190 (peptide)
peptide: IVLSLD[dV]PIKLK([γGlu-C16 diacid])QILLKQERQKKQREQAEKNKQILEQV-NH2
modifications: N-terminus assumed
SMILES: CC[C@H](C)[C@H](N)C(=O)N[C@H](C(=O)N[C@@H](CC(C)C)C(=O)N[C@@H](CO)C(=O)N[C@@H](CC(C)C)C(=O)N[C@@H](CC(=O)O)C(=O)N[C@@H](C(=O)N1CCC[C@H]1C(=O)N[C@H](C(=O)N[C@@H](CCCCN)C(=O)N[C@@H](CC(C)C)C(=O)N[C@@H](CCCCNC(=O)CC[C@H](NC(=O)CCCCCCCCCCCCCCC(=O)O)C(=O)O)C(=O)N[C@@H](CCC(N)=O)C(=O)N[C@H](C(=O)N[C@@H](CC(C)C)C(=O)N[C@@H](CC(C)C)C(=O)N[C@@H](CCCCN)C(=O)N[C@@H](CCC(N)=O)C(=O)N[C@@H](CCC(=O)O)C(=O)N[C@@H](CCCNC(=N)N)C(=O)N[C@@H](CCC(N)=O)C(=O)N[C@@H](CCCCN)C(=O)N[C@@H](CCCCN)C(=O)N[C@@H](CCC(N)=O)C(=O)N[C@@H](CCCNC(=N)N)C(=O)N[C@@H](CCC(=O)O)C(=O)N[C@@H](CCC(N)=O)C(=O)N[C@@H](C)C(=O)N[C@@H](CCC(=O)O)C(=O)N[C@@H](CCCCN)C(=O)N[C@@H](CC(N)=O)C(=O)N[C@@H](CCCCN)C(=O)N[C@@H](CCC(N)=O)C(=O)N[C@H](C(=O)N[C@@H](CC(C)C)C(=O)N[C@@H](CCC(=O)O)C(=O)N[C@@H](CCC(N)=O)C(=O)N[C@H](C(N)=O)C(C)C)[C@@H](C)CC)[C@@H](C)CC)[C@@H](C)CC)C(C)C)C(C)C
For B3, in experiment [2], the EC50 [nM], 0% HSA (cAMP, HTRF) came out at 2.47 nM. Further, in experiment [3], the CRF2 EC50 (cAMP, HTRF) is 2.47 nM.
